Assay results reported in the RNAGym collection of RNA variant scans (doi:10.1073/pnas.2313332121).

B1: TPR t1 (parent)
chain: GACCAAUCUGCCCUCAGAGCUCGAGAACAUCUUCGGAUGCAGAGGAGGCAGGCUUCGGUGGCGCGAUAGCGCCAACGUCCUCAACCUCCAAUGCAUCCCACCACAUGAUGAUGCCUGAAGAGCCUUGGUUUUUUG

Variants of: B1
Test: polymerase ribozyme fitness, log enrichment relative to wild type (log ratio); higher = more active; in vitro selection for triplet polymerase activity
Summary of the method: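 To select mutant libraries of each subunit of a heterodimeric triplet polymerase ribozyme, built by PCR and transcribed, each was annealed with a biotinylated primer, partner subunit and triplets, then incubated frozen at −7 °C. Extended constructs were gel-excised, captured on streptavidin beads and amplified by RT-PCR, in one round carried out in triplicate. Illumina sequencing of input and output libraries kept genotypes with ≥10 input reads and ≥1 read per output. Fitness is the base-2 logarithm of genotype enrichment relative to wild-type enrichment, from inverse-variance-weighted replicate averages.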

Variant	polymerase ribozyme fitness (log ratio)
GACCAAUCUGCCUUCAGAGGUCGAGAACAUCUUCGGAUGCAGAGGAGGCAGGCUUCGGUGGCGAGAUAGCGCUAACGUCCUCAACCUCCAAUGCAUCCCACCAAAUGAUUAUGCCUGAAGUGCCUUGGUUUUUUG	-7.37
GACCAAUCUGCCUUCAGAGCUCGAGAACGUCUUCGGAUGCAGAGGAGGCAGACUUCGGUGGCGCGAUAGCGCCAACGUCCUCAACCUCCAAUGCAUCCCACUACAUGAUGAUGCCUGAAGAGCCUUGGUUUUUUG	-4.34
GACCAAUCUGCCUUCAGAGCUCGAGAACUUCUUCGGAUGCAGAGGAGGCAGGCUUCGGUGGCGCGAUAGCGCCAACGACUUCAACCUCCAAUGCAGCCCACCACAUGAUGAUGCCGGAAUAACCUUGGUUUUUUG	-5.15
GACCAAUCUGCCUUCAGAGCUCGAGAACAUCUUCGGAUGCAGAGGAGGCGGGCUUCGGUGGCGCGAUAGCGCCAACGUCCUCAAGCUCCAAUGCAUCCCACCACAUGAUGAUGCCUGAAGAGGCUUGGUUUUUUG	-0.185
GACCAAUCUGCCUUCAGAGCUCGAGAACAUCUUCGGAUGCAGAGGUGGCAGGCUUAGGUGGCGCGAUAGCGCCAACGUCCUCAAUCUCCAAUGCAUCCCACCACAUGAUGAUGCCUGAAGAGCCUUGGUUUUUUG	-2.14
GACCAAUCUGCCUUCAGAGCUCGAGAACGUCUUCGGAUGCAGAGGAGGCAGGCUUCGGUGGCGCGAUAGCGCCAACGUCCUCGACCUCCAAUGCAUCCCACCACAUGAUGAUGCCUGAAGAGCCUUGGUUUUUUG	-1.83
GACCAAUCUGCCUUCAGAGCUCGAGAACAUCUUCGGAUGCAGAGGAGGCAGGCUUCGGUGGCGCGAUAGCGCCAACGUCCUCAACCUCCAAUGCAUCCCACCACUUGAUGAUGCAUGAAGUGCCUUGGUUUUUUG	0.733
GACCAAUCUGCCUUCAGAGCUCGAGAACUUCUUCGGAUGCAGAGGAGGCAGGCUUCGGUGGCGCGAUAGCGCCAACGUCCUCAACCUCCAAUGCAUCCCACUACAUGAUGAUGCCUGAAGAGCCUUGGUUUUUUG	-3.96
GACCAAUCUGCCUUCAGAGCUCGAGAACAUCUUCGGAUGCAGAGGAGGCGGGCUUCGGUGGCGCGAUAGCGCCAACGUCCUCAACCUCCAAUGCAUCCCACCACAUGAUGAUGCCUGAAGAGCCUUGGUUUUUUG	-0.113
GACCAAUCUGCCUUCAGAGCUCGGGAACAUCUUCGGAUGCAGAGGAGGCUGGCUUCGGUGGCGCGAUAGCGCCAACGUCCUCAACCUCCAAUGCAUCCCACCACAUGAUGAUGCCUGAAGAGCCUUGGUUUUUUG	-1.91
GACCAAUCUGCCUUCAGAGCUCGAGAACAUCUUCGGAUGCGGAGGAGGAAGUCUUCGGUGGCGCGAUAGCGCCAACGUCCUCAACCUCCAAUGCAUCCCACCACAUGAUGAUGCCUGAAGAGCCUUGGUUUUUUG	-1.15
GACCAAUCUGCCUUCAGAGCUCGAGUACAUCUUCGGAUGCAGAGGAGGCAGGCUUCGGUGGCGCGAUACCGCCAACGUCCUCAACCUCCAAUGCAUCCCACCACAUGAUGAUGCCUGAAGAGCCUUGGUUUUUUG	-4.28
GACCAAUCUGCCUUAAGAGCUCGAGAACAUCUUCGGAUGCAGAGGAGGCAGGCUUCGGUAGCGCGAUAGCGCCAACGUCCUCAACCUCCAAUGCAUCCCACCACAUGAUGAUCCCUGAAGAGCCUUGGUUUUUUU	-7.27
GACCAAUCUGCCUUCAGAGCUCGAGAACAUCUUCGGAUGCAGAGGAGGCAGGCUUCGGUGGCGCGAUAGCGCCCACGUCCUCAACCUCCAAUGCAUCCCACCACAUGAUGAUGCCUGAAGAGCCUUGGUUUUUUG	0.251
GACCAAUCUGCCUUCAGAGCUCGAGAACAUCUUCGGCUGAAGAGGAGGCAGGCUUCGGUGGCGCGAUAGCGCAAACGUCCUCAACCUCCAAUACAUCCCACCACAUGAUGAUGCCUUAAGAGCCUUGGUUUUUUG	-3.4
GACCAAUCUGCCUUCAGAGCUCGAGAACAUCUUCGGAUGCAGAGGUGGCAGGCUUCGGUGGCGCGAUAGCGGCAACGUCCUCAACCUCCAAUGCAUCCCACCACAUGAUGAUGCCUGAAGAACCUUGGUUUUUUG	-1.17
GACCAAUCUGCCUUCAGUGCUCGAGAACAUCUUCGGAUGCACAGGAGGCAGGCUUCGGUGGCGCGAUAGCGCCAACGUCCUCAACCACCAAUGCAUCCCACCACAUGAUGAUGCCUGAAGAGCUUUGGUUUUUUG	0.0751
GACCAAUCUGCCUUCAGAGCUCGAGAACAUCUUCGGAUGCAGAGGAGGGUGGCUUCGAUGGCGCGAUAGCGCCAACGUCCUCAACCUCCAAUGCGUCCCACCACAUGAUGAUGGCUGAAGAGCCUUGGUUUUUUG	-5.63
GACCAAUCUGCCUUCAGAGUUCGAGAACAUCUUCGGAUGCAGAUGAUGCAGGCUUCGGUGGCGCGAUAGCGCCAACGUCCUCAACCUCCAAUGCAUCCCACCACAUGAUGAUGCCUGAAGAGCCUUGGUUUUUUG	-3.8
GACCAAUCUGCCUUCAGAGCUCGAGAACAUCUUCGGAUGUAGAGGAGUCAGGCUUCGGUGGCGCGAUAGCGCCAACGUCCUCAACCUCCAAUGCAUCCCACCACAUGAUAAUGCCUUUAGAGCCUUGGUUUUUUG	-4.23
GACCAAUCUGCCUUCAGAGGUCGAGAACAUCUUCGGAUGCAGAGGAGGCAGGCUUCGGUGGCGCGAUAGCGCCAACGUCCUCAACCUCCAAUGCAUCCCACCACAUGAUGAUGCCUGAAGAGCCUUGGUUUUUUG	-4.55
